# According to paper PMC2599749 (Protein expression and purification, 2008):
# B1: bZIP domain of Activating Transcription Factor 5 (ATF5), untagged (domain or fragment, UniProt Q9Y2D1 208-271, looked up)
# chain: GDRKQKKRDQNKSAALRYRQRKRAEGEALEGECQGLEARNRELKERAESVEREIQYVKDLLIEV
# Columns and labels:
# non-reducing SDS-PAGE = biological target: the molecule itself; assay: non-reducing SDS-PAGE
# [1] = biological target: the molecule itself; assay: HPLC/ESI mass spectrometry
protein,measurement,setting,value
B1,monomer:dimer ratio (densitometry of the SDS-PAGE gel),non-reducing SDS-PAGE,1.7 dimer per 1.0 monomer
same,stoichiometry N,[1],2
